Measurements reported in US20060100138.

Tests used:
[1] = system: Synthetic human type I collagen
[2] = system: Synthetic human type III collagen
Chain of Synthetic human type III collagen (chain, as listed by the source): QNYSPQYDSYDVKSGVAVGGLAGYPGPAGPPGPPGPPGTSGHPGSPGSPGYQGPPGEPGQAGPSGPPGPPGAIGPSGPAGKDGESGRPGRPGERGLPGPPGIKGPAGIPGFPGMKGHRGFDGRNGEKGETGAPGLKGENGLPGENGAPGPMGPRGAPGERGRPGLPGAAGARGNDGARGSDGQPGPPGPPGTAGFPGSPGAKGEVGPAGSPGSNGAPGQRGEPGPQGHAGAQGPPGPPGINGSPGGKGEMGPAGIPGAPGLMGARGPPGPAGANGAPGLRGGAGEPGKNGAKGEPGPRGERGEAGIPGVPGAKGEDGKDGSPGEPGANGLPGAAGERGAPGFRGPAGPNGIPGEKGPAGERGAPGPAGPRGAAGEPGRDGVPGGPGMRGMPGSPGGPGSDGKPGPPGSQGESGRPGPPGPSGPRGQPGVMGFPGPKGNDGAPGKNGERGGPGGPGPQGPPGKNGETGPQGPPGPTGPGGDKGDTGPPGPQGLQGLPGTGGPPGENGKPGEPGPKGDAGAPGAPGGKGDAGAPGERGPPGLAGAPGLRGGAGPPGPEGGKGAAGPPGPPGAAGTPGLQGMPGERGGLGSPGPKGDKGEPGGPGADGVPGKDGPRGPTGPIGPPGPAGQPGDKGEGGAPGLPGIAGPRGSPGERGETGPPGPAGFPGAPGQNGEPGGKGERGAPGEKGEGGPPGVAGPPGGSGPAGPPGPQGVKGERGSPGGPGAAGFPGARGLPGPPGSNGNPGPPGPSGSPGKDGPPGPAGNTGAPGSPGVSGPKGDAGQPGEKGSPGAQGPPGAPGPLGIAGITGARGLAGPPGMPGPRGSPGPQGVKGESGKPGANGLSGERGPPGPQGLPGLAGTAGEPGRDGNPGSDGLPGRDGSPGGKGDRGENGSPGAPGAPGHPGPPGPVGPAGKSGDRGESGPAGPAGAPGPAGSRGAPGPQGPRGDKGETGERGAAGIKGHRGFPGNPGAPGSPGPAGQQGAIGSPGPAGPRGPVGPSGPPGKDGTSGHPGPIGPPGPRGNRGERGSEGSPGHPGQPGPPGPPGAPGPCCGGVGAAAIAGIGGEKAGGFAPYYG

Chain of MMP-8 (collagenase 2, neutrophil collagenase) (chain, as listed by the source): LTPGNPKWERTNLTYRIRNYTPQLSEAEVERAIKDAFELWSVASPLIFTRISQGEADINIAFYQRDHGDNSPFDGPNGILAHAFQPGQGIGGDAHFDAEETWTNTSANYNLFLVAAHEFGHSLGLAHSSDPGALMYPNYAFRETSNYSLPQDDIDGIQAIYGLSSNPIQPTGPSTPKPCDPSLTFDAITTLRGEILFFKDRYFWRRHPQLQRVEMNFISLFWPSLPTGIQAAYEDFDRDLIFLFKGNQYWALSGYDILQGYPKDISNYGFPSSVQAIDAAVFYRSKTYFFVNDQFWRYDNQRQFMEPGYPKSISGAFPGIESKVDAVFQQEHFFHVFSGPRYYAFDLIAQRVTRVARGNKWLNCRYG
Chain of Synthetic human type I collagen (chain, as listed by the source, chain 1 of 2): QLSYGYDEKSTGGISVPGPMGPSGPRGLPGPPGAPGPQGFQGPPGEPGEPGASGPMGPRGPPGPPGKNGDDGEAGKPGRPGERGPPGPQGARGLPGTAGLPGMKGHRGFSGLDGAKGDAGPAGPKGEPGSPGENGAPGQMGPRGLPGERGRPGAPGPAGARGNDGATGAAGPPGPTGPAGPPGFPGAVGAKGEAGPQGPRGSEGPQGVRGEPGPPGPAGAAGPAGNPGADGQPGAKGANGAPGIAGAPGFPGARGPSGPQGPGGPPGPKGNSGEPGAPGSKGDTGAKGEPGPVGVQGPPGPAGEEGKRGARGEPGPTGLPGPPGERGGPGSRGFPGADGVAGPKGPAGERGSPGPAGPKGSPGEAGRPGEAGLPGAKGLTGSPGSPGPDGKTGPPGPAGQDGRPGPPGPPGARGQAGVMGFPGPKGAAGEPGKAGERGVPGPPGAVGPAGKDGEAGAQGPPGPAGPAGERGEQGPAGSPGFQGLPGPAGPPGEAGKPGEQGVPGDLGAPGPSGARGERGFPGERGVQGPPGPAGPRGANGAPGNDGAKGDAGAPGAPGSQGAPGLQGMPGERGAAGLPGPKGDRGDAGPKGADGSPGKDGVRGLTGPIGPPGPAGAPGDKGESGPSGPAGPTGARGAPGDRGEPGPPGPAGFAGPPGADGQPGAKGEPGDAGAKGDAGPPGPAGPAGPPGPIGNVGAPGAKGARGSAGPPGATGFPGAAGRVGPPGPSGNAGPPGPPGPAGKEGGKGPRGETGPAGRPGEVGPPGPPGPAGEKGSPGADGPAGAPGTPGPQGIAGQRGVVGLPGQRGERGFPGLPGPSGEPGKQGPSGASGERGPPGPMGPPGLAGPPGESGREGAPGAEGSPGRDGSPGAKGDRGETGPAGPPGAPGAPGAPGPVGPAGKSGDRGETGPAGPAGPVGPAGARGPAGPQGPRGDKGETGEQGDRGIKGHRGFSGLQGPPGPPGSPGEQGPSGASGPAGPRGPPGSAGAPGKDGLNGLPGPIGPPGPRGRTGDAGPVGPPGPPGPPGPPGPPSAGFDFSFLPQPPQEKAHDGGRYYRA
Chain of Synthetic human type I collagen (chain, as listed by the source, chain 2 of 2): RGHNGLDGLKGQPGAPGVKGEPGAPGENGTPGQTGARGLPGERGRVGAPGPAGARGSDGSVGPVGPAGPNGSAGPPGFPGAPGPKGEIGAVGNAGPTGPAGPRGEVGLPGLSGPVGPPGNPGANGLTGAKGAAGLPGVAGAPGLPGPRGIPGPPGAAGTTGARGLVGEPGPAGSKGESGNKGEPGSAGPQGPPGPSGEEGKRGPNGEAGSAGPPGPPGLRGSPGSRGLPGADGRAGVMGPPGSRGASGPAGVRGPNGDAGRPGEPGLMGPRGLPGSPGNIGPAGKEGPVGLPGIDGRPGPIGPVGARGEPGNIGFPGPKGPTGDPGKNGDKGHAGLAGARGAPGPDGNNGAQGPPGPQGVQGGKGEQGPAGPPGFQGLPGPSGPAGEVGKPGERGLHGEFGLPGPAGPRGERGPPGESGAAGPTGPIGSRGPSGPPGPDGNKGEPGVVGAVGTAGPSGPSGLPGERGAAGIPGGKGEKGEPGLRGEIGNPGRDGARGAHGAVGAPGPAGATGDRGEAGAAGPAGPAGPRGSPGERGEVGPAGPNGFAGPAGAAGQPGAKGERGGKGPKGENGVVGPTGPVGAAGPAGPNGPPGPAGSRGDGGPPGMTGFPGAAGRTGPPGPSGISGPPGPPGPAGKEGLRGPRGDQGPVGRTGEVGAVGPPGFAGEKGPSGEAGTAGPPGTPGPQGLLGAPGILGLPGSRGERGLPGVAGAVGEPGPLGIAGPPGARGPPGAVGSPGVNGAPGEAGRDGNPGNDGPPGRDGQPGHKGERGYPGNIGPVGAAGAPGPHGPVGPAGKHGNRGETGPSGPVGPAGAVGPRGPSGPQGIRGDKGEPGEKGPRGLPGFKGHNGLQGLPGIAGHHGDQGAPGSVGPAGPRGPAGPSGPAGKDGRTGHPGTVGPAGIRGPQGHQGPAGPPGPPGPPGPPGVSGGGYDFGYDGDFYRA

Substance: MMP-8 (collagenase 2, neutrophil collagenase)
- cleavage of collagen (SDS-PAGE after 1, 2 and 7 days at 37 C) [1]: both synthetic human type I and type III collagen were cleaved by MMP-1 (FIG. 1A) and MMP-8 (FIG. 1B)
- cleavage of collagen (SDS-PAGE after 1, 2 and 7 days at 37 C) [2]: both synthetic human type I and type III collagen were cleaved by MMP-1 (FIG. 1A) and MMP-8 (FIG. 1B)
- extent of degradation of collagen (SDS-PAGE) [2]: Synthetic human type III collagen was degraded by MMP-1 to a greater extent than by MMP-8
